Experimental data published in PMC12631009, “Dominant‐Negative Effects of p53 R337 Variants in Li–Fraumeni Syndrome: Impact on Tetramer Formation and Transcriptional Activity” (Chembiochem, 2025).

Target: T1, Biotin-(Aca)2-p53TD (biotin-labeled WT p53 tetramerization domain peptide, residues 319-358) (human, biotin conjugated at the N-terminus with two residues of aminocaproic acid (Aca) as a linker)
T1 construct: p53 tetramerization domain, human, residues 319-358; Held on NeutrAvidin beads in the pull-down; also called Bio-(Aca)2-p53TD; biotin-labeled WT p53TD; source: synthetic peptide (solid-phase synthesis, reverse-phase HPLC purified); not shown: biotin, N-terminal, kept
T1 peptide: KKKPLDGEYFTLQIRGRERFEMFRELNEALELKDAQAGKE
Assay: pull-down; avidin-biotin pull-down: Bio-(Aca)2-p53TD mixed with nonbiotinylated peptide at equimolar concentrations (10 μM) in 50 mM Na phosphate buffer (pH 7.5), 100 mM NaCl; boiled 5 min, cooled to promote hetero-oligomerization; bound to NeutrAvidin beads at 4 °C for 2 h; eluted with 80% acetic acid; peptides quantified by reverse-phase HPLC; result as ratio of peptide pulled down to biotinylated p53TD
Details: both partners purified

B1: WT p53TD peptide (residues 319-358 of human p53), nonbiotinylated (peptide)
peptide: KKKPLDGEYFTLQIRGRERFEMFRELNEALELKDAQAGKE
notes: p53 tetramerization domain, human, residues 319-358; source: synthetic peptide (solid-phase synthesis, reverse-phase HPLC purified)
With B1 the “ratio of peptide pulled down to biotinylated p53TD” value was 0.81.
